Some targets named below: death receptor; αVβ3 integrin (human) (UniProt P06756); αVβ5 integrin (human) (UniProt P06756).
Common to all, as to test: cell-based or functional assay

Chain of αVβ5 integrin (human) (P06756 31-1048, chain 1 of 2): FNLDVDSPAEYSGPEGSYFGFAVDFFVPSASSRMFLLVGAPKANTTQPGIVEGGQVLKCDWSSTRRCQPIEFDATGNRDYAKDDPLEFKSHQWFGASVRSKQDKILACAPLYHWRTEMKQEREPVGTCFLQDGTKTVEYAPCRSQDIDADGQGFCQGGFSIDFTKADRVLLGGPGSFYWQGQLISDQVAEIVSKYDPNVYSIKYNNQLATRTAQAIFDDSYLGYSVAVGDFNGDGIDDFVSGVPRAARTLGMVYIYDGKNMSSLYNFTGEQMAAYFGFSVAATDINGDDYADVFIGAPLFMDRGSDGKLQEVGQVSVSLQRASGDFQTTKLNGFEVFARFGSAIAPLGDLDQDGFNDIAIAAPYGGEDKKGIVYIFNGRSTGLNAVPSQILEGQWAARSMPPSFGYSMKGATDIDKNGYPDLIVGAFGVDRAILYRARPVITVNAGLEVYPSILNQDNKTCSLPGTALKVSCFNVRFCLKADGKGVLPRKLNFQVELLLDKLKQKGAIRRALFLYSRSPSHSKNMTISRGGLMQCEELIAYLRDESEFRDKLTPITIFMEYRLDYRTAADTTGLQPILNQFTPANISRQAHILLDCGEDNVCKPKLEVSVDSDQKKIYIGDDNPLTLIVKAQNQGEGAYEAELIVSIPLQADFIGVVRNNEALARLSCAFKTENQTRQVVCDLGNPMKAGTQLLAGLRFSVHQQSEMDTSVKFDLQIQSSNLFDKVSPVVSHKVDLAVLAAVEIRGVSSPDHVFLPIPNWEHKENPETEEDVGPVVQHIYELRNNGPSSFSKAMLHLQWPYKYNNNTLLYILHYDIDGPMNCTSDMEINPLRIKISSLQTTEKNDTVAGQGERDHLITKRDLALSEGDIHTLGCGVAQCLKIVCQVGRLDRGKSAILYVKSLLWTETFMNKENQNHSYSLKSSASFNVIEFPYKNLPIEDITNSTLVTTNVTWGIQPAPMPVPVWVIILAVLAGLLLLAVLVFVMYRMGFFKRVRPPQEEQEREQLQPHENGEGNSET
Chain of αVβ5 integrin (human) (P18084 24-799, chain 2 of 2, further chain): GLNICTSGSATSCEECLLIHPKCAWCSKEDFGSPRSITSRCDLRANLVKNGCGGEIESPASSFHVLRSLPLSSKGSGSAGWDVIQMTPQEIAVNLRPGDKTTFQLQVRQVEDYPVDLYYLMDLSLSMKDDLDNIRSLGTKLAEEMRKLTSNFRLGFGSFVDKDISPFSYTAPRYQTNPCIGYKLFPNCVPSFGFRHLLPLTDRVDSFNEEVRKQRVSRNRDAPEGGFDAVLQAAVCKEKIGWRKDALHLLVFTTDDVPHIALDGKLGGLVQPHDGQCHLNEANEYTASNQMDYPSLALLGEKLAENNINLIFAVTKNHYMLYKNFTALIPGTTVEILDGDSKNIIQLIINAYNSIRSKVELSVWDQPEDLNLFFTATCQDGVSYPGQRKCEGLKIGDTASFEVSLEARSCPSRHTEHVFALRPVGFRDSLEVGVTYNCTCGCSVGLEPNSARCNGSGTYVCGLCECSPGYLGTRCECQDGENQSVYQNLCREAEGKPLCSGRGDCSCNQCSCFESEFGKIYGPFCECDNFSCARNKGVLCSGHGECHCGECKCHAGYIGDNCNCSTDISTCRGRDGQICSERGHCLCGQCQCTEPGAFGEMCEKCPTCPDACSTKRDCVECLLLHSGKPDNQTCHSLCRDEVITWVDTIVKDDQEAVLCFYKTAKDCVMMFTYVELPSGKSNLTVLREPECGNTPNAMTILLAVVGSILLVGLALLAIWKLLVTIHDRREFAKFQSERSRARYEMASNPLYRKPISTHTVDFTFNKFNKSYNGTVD
Chain of αVβ3 integrin (human) (P06756 31-1048, chain 1 of 2): as the sequence (P06756 31-1048, chain 1 of 2) above
Chain of αVβ3 integrin (human) (P05106 27-788, chain 2 of 2, further chain): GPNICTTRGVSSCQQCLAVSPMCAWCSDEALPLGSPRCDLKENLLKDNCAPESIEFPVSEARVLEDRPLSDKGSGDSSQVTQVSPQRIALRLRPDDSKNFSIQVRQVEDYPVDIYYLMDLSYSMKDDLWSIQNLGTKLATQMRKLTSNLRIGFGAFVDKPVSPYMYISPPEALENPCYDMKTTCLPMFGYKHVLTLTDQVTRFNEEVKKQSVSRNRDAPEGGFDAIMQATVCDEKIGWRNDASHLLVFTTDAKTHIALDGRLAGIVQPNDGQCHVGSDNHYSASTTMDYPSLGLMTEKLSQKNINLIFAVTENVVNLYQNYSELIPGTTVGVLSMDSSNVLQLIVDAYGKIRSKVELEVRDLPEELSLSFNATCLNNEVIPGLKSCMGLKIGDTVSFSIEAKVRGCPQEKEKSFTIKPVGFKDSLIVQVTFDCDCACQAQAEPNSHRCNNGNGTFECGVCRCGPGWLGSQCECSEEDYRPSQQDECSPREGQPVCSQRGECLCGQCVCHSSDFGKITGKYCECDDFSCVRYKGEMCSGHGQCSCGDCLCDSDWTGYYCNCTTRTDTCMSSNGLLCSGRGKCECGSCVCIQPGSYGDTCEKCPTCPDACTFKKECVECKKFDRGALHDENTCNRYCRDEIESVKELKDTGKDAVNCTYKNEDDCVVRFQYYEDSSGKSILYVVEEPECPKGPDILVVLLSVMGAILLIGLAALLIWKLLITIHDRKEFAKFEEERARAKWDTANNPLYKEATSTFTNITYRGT

In the assay with death receptor, “RGD-L-TRAIL (human TRAIL variant: short peptide …, connecting peptide of five glycines, TRAIL) (from UniProt P50591 114-281)” showed an apoptosis rate of COLO-205 cells at 2.43 ng/ml (Annexin V-FITC and PI double staining) of 87.5%; a caspase-8 and caspase-3 activity in Jurkat cells after two hours, against the same dose of wild-type TRAIL of 2.5 times; a medial lethal dose on COLO-205 cells of 0.37 ng/mL; a medial lethal dose on Jurkat cells of 0.41 ng/mL. Further, the medial lethal dose on MDA-MB-231 cells with death receptor is 1.2 ng/mL. In the assay with αVβ3 integrin (human), this substance registered a fold reduction of the medial lethal dose against wild-type TRAIL, COLO-205 cells of 9.5 times; a fold reduction of the medial lethal dose against wild-type TRAIL, Jurkat cells of 16.3 times; a fold reduction of the medial lethal dose against wild-type TRAIL, MDA-MB-231 cells of 1.9 times. In the assay with αVβ5 integrin (human), this substance came in with a fold reduction of the medial lethal dose against wild-type TRAIL, COLO-205 cells of 9.5 times; a fold reduction of the medial lethal dose against wild-type TRAIL, Jurkat cells of 16.3 times; a fold reduction of the medial lethal dose against wild-type TRAIL, MDA-MB-231 cells of 1.9 times.
